Laboratory results reported in patent US7588893.

Columns and labels:
[1] = biological target: poly-CT oligonucleotide tagged rabbit IgG; test: fluorescent microspheres on the poly-GA microspot carrying Poly-CT-Rabbit IgG, confocal laser scanning, ex 568 / em 585
[2] = biological target: poly-GT oligonucleotide tagged anti-TSH mouse monoclonal IgG; test: fluorescent microspheres on the poly-CA microspot carrying Poly-GT-Mouse IgG, confocal laser scanning, ex 568 / em 585; control 22.0 ± 0.2
[3] = biological target: poly-GT oligonucleotide tagged anti-TSH mouse monoclonal IgG; test: fluorescent microspheres on the poly-CA microspot carrying Poly-GT-Mouse IgG, confocal laser scanning, ex 488 / em 525
[4] = biological target: poly-CT oligonucleotide tagged rabbit IgG; test: fluorescent microspheres on the poly-GA microspot carrying Poly-CT-Rabbit IgG, confocal laser scanning, ex 488 / em 525; control 13.3 ± 0.5

Red Signal [1]	Red Signal [2]	Yellow/Green Signal [3]	Yellow/Green Signal [4]	Substance
99.8	24			goat anti-rabbit IgG (whole molecule) antibody conjugated red FLUOSPHERES
		101	16.9	goat anti-mouse IgG (whole molecule) antibody conjugated yellow-green FLUOSPHERES
